In patent US10253076B2, “Peptides and combination of peptides for use in immunotherapy against ovarian cancer and other cancers” (immatics biotechnologies GmbH, priority 2015, dated 2019) one finds Peptide exchange data, which are given here for 70 substances.

In this assay the target is HLA-A*02:01 (Homo sapiens, UniProt P04439, D140Y/D185E/D98H/E176V/E277Q/G131W/G231S/I119V/I121R/I166T/I218V/L300P/L318F/N151K/N90K/P208A/P217A/Q86G/Q94H/R138H/R169H/T345S). Put plainly: MHC binding assay (UV-ligand exchange, beta2m ELISA, peptide exchange yield). The following applies: binding of HLA-class I restricted peptides to HLA-A*02:01, ranged by peptide exchange yield (UV-ligand exchange, β2m ELISA). In short, it runs like this: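 Peptide–HLA-A*02:01 complexes made by UV-mediated exchange of a photocleavable peptide with the test peptide. Exchange products diluted 100-fold on streptavidin-coated plates, 1 h at 37°C, then HRP anti-β2m 1 h at 37°C; TMB read at 450 nm to give exchange yield.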

For “399 (YLFEPLYHV; listed as Homo sapiens) [compound 399]”, the Peptide exchange result was “″+++″ (≥50% = +++)”.
Regarding “538 (LLLAHIIAL; listed as Homo sapiens) [compound 538]”, the Peptide exchange entry is on record as “″++″ (≥20% = ++)”.
In the case of “322 (TLMTSLPAL; listed as Homo sapiens) [compound 322]”, the Peptide exchange result is on record as “″+++″ (≥50% = +++)”.
The result for “17 (GLLPGDRLVSV; listed as Homo sapiens) [compound 17]” reads “″+++″ (≥50% = +++)”.
Regarding “615 (VLPPDTDPA; listed as Homo sapiens) [compound 615]”, the Peptide exchange entry is “″++″ (≥20% = ++)”.
With “57 (TLAELQPPVQL; listed as Homo sapiens) [compound 57]”, the Peptide exchange entry is “″+++″ (≥50% = +++)”.
With “585 (ALWDLAADKQTL; listed as Homo sapiens) [compound 585]”, the Peptide exchange result is recorded as “″++++″ (≥75% = ++++)”.
For the substance “469 (YLASDEITTV; listed as Homo sapiens) [compound 469]”, the Peptide exchange entry is on record as “″+++″ (≥50% = +++)”.
“46 (ILTEENIHL; listed as Homo sapiens) [compound 46]”: the Peptide exchange entry is recorded as “″+++″ (≥50% = +++)”.
With “251 (ALYTGFSILV; listed as Homo sapiens) [compound 251]”, the Peptide exchange result is listed as “″++″ (≥20% = ++)”.
As to “463 (SLVESHLSDQLTL; listed as Homo sapiens) [compound 463]”, the Peptide exchange result is “″+++″ (≥50% = +++)”.
In the case of “27 (ILADIVISA; listed as Homo sapiens) [compound 27]”, the Peptide exchange result is listed as “″+++″ (≥50% = +++)”.
The result for “405 (ALYDVFLEV; listed as Homo sapiens) [compound 405]” reads “″++″ (≥20% = ++)”; that for “605 (KLYEAVPQL; listed as Homo sapiens) [compound 605]”, “″+++″ (≥50% = +++)”.
On to “207 (GLTSTNAEV; listed as Homo sapiens) [compound 207]”, for which the Peptide exchange entry was “″++″ (≥20% = ++)”.
Then “188 (GLFPVTPEAV; listed as Homo sapiens) [compound 188]”, with “″+++″ (≥50% = +++)”; and “229 (RLPGPLGTV; listed as Homo sapiens) [compound 229]”, with “″++″ (≥20% = ++)”; and “9 (GAAKDLPGV; listed as Homo sapiens) [compound 9]”, with “″++″ (≥20% = ++)”.
For “393 (GLLDTQTSQVLTA; listed as Homo sapiens) [compound 393]”, the Peptide exchange result was “″++″ (≥20% = ++)”.
In the case of “98 (LIIDQADIYL; listed as Homo sapiens) [compound 98]”, the Peptide exchange result is recorded as “″+++″ (≥50% = +++)”.
In the case of “68 (SLMELPRGLFL; listed as Homo sapiens) [compound 68]”, the Peptide exchange result is on record as “″++++″ (≥75% = ++++)”.
For “138 (YQYPRAILSV; listed as Homo sapiens) [compound 138]”, the Peptide exchange entry is “″+++″ (≥50% = +++)”.
With “154 (ALDDGTPAL; listed as Homo sapiens) [compound 154]”, the Peptide exchange result is “″++″ (≥20% = ++)”.
As for “555 (YVLEGLKSV; listed as Homo sapiens) [compound 555]”, the Peptide exchange result is listed as “″+++″ (≥50% = +++)”.
For the substance “249 (LLDGFLVNV; listed as Homo sapiens) [compound 249]”, the Peptide exchange result is reported as “″+++″ (≥50% = +++)”.
Turning to “567 (SLLPLDDIVRV; listed as Homo sapiens) [compound 567]”, the Peptide exchange result is recorded as “″+++″ (≥50% = +++)”.
Consider “496 (FLVEKQPPQV; listed as Homo sapiens) [compound 496]”, for which the Peptide exchange entry is “″+++″ (≥50% = +++)”.
Consider “146 (SLATAGDGLIEL; listed as Homo sapiens) [compound 146]”, for which the Peptide exchange entry is given as “″++″ (≥20% = ++)”.
Take “342 (HIYDKVMTV; listed as Homo sapiens) [compound 342]”: the Peptide exchange result is listed as “″+++″ (≥50% = +++)”.
For the substance “15 (VLLTFKIFL; listed as Homo sapiens) [compound 15]”, the Peptide exchange result is given as “″++″ (≥20% = ++)”.
As for “324 (FLYDEIEAEV; listed as Homo sapiens) [compound 324]”, the Peptide exchange entry is listed as “″+++″ (≥50% = +++)”.
For the substance “461 (VMFRTPLASV; listed as Homo sapiens) [compound 461]”, the Peptide exchange result is reported as “″++″ (≥20% = ++)”.
Then “586 (KLKPGDLVGV; listed as Homo sapiens) [compound 586]”, with “″+++″ (≥50% = +++)”.
In the case of “444 (GLLRDEALAEV; listed as Homo sapiens) [compound 444]”, the Peptide exchange entry is given as “″+++″ (≥50% = +++)”.
As to “572 (ALADLIEKELSV; listed as Homo sapiens) [compound 572]”, the Peptide exchange entry was “″+++″ (≥50% = +++)”.
The result for “545 (LLADLLHNV; listed as Homo sapiens) [compound 545]” reads “″+++″ (≥50% = +++)”; that for “564 (TVTNAVVTV; listed as Homo sapiens) [compound 564]”, “″+++″ (≥50% = +++)”; that for “108 (ALFPGVALLLA; listed as Homo sapiens) [compound 108]”, “″++++″ (≥75% = ++++)”.
With “607 (RLYSGISGLEL; listed as Homo sapiens) [compound 607]”, the Peptide exchange entry is “″+++″ (≥50% = +++)”.
Turning to “335 (YSLSSVVTV; listed as Homo sapiens) [compound 335]”, the Peptide exchange entry is reported as “″+++″ (≥50% = +++)”.
As to “430 (HLYSSIEHLTT; listed as Homo sapiens) [compound 430]”, the Peptide exchange entry was “″+++″ (≥50% = +++)”.
As to “309 (GLFDGVPTTA; listed as Homo sapiens) [compound 309]”, the Peptide exchange result is “″+++″ (≥50% = +++)”.
Regarding “77 (ILVEADGAWVV; listed as Homo sapiens) [compound 77]”, the Peptide exchange result was “″++++″ (≥75% = ++++)”.
Take “491 (GLNDRSDAV; listed as Homo sapiens) [compound 491]”: the Peptide exchange result is given as “″++″ (≥20% = ++)”.
As for “354 (LILEGVDTV; listed as Homo sapiens) [compound 354]”, the Peptide exchange entry was “″++″ (≥20% = ++)”.
Then “556 (FLTDLEDLTL; listed as Homo sapiens) [compound 556]”, with “″+++″ (≥50% = +++)”; and “552 (GLLDLPFRVGV; listed as Homo sapiens) [compound 552]”, with “″++++″ (≥75% = ++++)”.
For the substance “190 (FLSSLTETI; listed as Homo sapiens) [compound 190]”, the Peptide exchange entry is listed as “″+++″ (≥50% = +++)”.
The result for “110 (FLSQVDFEL; listed as Homo sapiens) [compound 110]” reads “″+++″ (≥50% = +++)”; that for “74 (ALLDPEVLSIFV; listed as Homo sapiens) [compound 74]”, “″+++″ (≥50% = +++)”; that for “287 (FLNEFFLNV; listed as Homo sapiens) [compound 287]”, “″+++″ (≥50% = +++)”.
“481 (GLIEDYEALL; listed as Homo sapiens) [compound 481]”: the Peptide exchange result was “″+++″ (≥50% = +++)”.
On to “132 (LLVEQPPLAGV; listed as Homo sapiens) [compound 132]”, for which the Peptide exchange entry is on record as “″+++″ (≥50% = +++)”.
In the case of “115 (AIAGAGILYGV; listed as Homo sapiens) [compound 115]”, the Peptide exchange result is reported as “″++″ (≥20% = ++)”.
On to “82 (FLSSVTYNL; listed as Homo sapiens) [compound 82]”, for which the Peptide exchange entry is “″+++″ (≥50% = +++)”.
Turning to “205 (SLYPGTETMGL; listed as Homo sapiens) [compound 205]”, the Peptide exchange entry is recorded as “″+++″ (≥50% = +++)”.
Consider “529 (LLADELITV; listed as Homo sapiens) [compound 529]”, for which the Peptide exchange result is “″+++″ (≥50% = +++)”.
For “28 (QLLDETSAITL; listed as Homo sapiens) [compound 28]”, the Peptide exchange result is listed as “″+++″ (≥50% = +++)”.
In the case of “106 (LLYDAVHIVSV; listed as Homo sapiens) [compound 106]”, the Peptide exchange entry is listed as “″+++″ (≥50% = +++)”.
Take “622 (RLLGEEVVRVLQA; listed as Homo sapiens) [compound 622]”: the Peptide exchange result is “″+++″ (≥50% = +++)”.
Then “485 (NVPDSFNEV; listed as Homo sapiens) [compound 485]”, with “″+++″ (≥50% = +++)”; and “484 (SLIEKVTQL; listed as Homo sapiens) [compound 484]”, with “″+++″ (≥50% = +++)”; and “255 (VLASYNLTV; listed as Homo sapiens) [compound 255]”, with “″+++″ (≥50% = +++)”.
Consider “311 (RLYTGMHTV; listed as Homo sapiens) [compound 311]”, for which the Peptide exchange entry is “″+++″ (≥50% = +++)”.
Turning to “346 (LLDSKVPSV; listed as Homo sapiens) [compound 346]”, the Peptide exchange entry is given as “″+++″ (≥50% = +++)”.
Take “464 (ALNDCIYSV; listed as Homo sapiens) [compound 464]”: the Peptide exchange result was “″+++″ (≥50% = +++)”.
For “178 (ALTEIAFVV; listed as Homo sapiens) [compound 178]”, the Peptide exchange entry was “″++++″ (≥75% = ++++)”.
With “613 (RLLPPGAVVAV; listed as Homo sapiens) [compound 613]”, the Peptide exchange entry is recorded as “″+++″ (≥50% = +++)”.
In the case of “382 (ALQNYIKEA; listed as Homo sapiens) [compound 382]”, the Peptide exchange result is “″++″ (≥20% = ++)”.
For the substance “328 (ALNDQVFEI; listed as Homo sapiens) [compound 328]”, the Peptide exchange result is listed as “″+++″ (≥50% = +++)”.
